Laboratory results reported in paper PMC6404975.

Legend:
glucagon = glucagon (UniProt P01275 53-81); assay: electrochemical aptamer-based sensor
[1] = biological target: insulin (bovine pancreas) (Bos taurus, UniProt P01317;P01317 25-54;85-105); assay: electrochemical aptamer-based sensor
insulin (bovine pancreas), sequence (P01317 25-54, chain 1 of 2): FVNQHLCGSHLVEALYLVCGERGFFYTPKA
insulin (bovine pancreas), sequence (P01317 85-105, chain 2 of 2): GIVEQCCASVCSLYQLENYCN

glucagon, sequence (P01275 53-81): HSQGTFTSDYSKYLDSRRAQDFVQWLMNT

Question: Which results are given for AAAAGGTGGTGGGGGGGGTTGGTAGGGTGTCTTCT (structured_DNA, 5' thiol-C6 (immobilised on gold); 3' methylene blue) [Insulin-End (IGA3)]?
Answer: binding result (glucagon): no binding; Kd [1]: 240 ± 65 nM
